Laboratory results as given in PMC8782169, “The distinct RNA-interaction modes of a small ZnF domain underlay TUT4(7) diverse action in miRNA regulation”.

Assays:
Conditions in all cases: protein: recombinant; tags: N-terminal His6 removed by TEV
[1] = biological target: T1, hTUT4 CCHC-ZnF2 (Homo sapiens, UniProt Q5TAX3 1293-1321); assay: BLI; NMR: 10 mM Tris-HCl pH 7.4, 100 mM NaCl, 0.5 mM TCEP, 10 uM ZnCl2, 25 C, 50 uM protein; BLI: streptavidin sensors, 1-8 uM protein, buffer not in material
T1 chain: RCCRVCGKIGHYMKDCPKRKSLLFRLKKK

[2] = biological target: T2, hTUT4 CCHC-ZnF2-3 (Homo sapiens, UniProt Q5TAX3 1293-1382); assay: BLI; affinity very similar to ZnF2 (value in figure only); NMR: 10 mM Tris-HCl pH 7.4, 100 mM NaCl, 0.5 mM TCEP, 10 uM ZnCl2, 25 C, 50 uM protein; BLI: streptavidin sensors, 1-8 uM protein, buffer not in material
T2 sequence: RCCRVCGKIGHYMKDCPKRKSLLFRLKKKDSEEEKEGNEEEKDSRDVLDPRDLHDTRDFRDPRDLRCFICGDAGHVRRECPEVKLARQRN

[3] = biological target: T1, hTUT4 CCHC-ZnF2; assay: NMR titration (15N HSQC CSP); 10 uM ZnCl2; protein:RNA 1:10; NMR: 10 mM Tris-HCl pH 7.4, 100 mM NaCl, 0.5 mM TCEP, 10 uM ZnCl2, 25 C, 50 uM protein; BLI: streptavidin sensors, 1-8 uM protein, buffer not in material
[4] = biological target: T2, hTUT4 CCHC-ZnF2-3; assay: BLI; affinity very similar to ZnF2; ~2-fold slower association and slightly longer lifetime (value in figure only); NMR: 10 mM Tris-HCl pH 7.4, 100 mM NaCl, 0.5 mM TCEP, 10 uM ZnCl2, 25 C, 50 uM protein; BLI: streptavidin sensors, 1-8 uM protein, buffer not in material
[5] = biological target: T1, hTUT4 CCHC-ZnF2; assay: NMR titration (15N HSQC CSP); 10 uM ZnCl2; NMR: 10 mM Tris-HCl pH 7.4, 100 mM NaCl, 0.5 mM TCEP, 10 uM ZnCl2, 25 C, 50 uM protein; BLI: streptavidin sensors, 1-8 uM protein, buffer not in material

B1: UUUGGA RNA (short RNA with SIA sequence) (ssRNA)
RNA: UUUGGA
**Q.** What does the source list for B1?
**A.** Kd [1]: ~4 µM; binding result [2]: binds

B2: UUUU RNA (ssRNA)
RNA: UUUU
**Q.** Does B2 bind [3]?
**A.** no binding

B3: Let-7i miRNA (ssRNA)
RNA: UGAGGUAGUAGUUUGUGCUGUU
**Q.** How did the Kd [1] turn out when B3 was run?
**A.** ~4 µM

**Q.** Does B3 bind [4]?
**A.** binds

B4: CGGA RNA (ssRNA)
RNA: CGGA
**Q.** How did the Kd [5] turn out when B4 was run?
**A.** 3.7 ± 0.4 µM
